Measurements taken from patent US20120093810A1 (EVEC, published 2012).
Positions count from the first letter of the chain named. In names and notes the source's numbering stands. No end group written: not given here. cellulose membrane = not defined here

Assays:
[1] = biological target: T1, glycoprotein gB of human cytomegalovirus (HCMV) AD169 strain (human cytomegalovirus, AD169 strain, UniProt P06473 32-906); assay: cell-based or functional assay
[2] = biological target: T2, synthetic gB peptide, Peptide 7 in Table 5 (human cytomegalovirus, AD169 strain, reading uncertain); assay: peptide array (SPOTs), dot blot
T2 construct: 12-mer of gB; also called peptide number 7
T2 peptide: NVKESPGRCYSR-{cellulose membrane}

[3] = biological target: T3, synthetic gB peptide, Peptide 21 in Table 5 (human cytomegalovirus, AD169 strain, reading uncertain); assay: peptide array (SPOTs), dot blot
T3 construct: 12-mer of gB; also called peptide number 21
T3 peptide: GNSAYEYVDYLF-{cellulose membrane}

[4] = biological target: T4, synthetic gB peptide, Peptide 8 in Table 5 (human cytomegalovirus, AD169 strain, reading uncertain); assay: peptide array (SPOTs), dot blot
T4 construct: 12-mer of gB; also called peptide number 8
T4 peptide: SPGRCYSRPVVI-{cellulose membrane}

[5] = biological target: T5, synthetic gB peptide, Peptide 22 in Table 5 (human cytomegalovirus, AD169 strain, reading uncertain); assay: peptide array (SPOTs), dot blot
T5 construct: 12-mer of gB; also called peptide number 22
T5 peptide: YEYVDYLFKRMI-{cellulose membrane}

[6] = biological target: T6, synthetic gB peptide, Peptide 3 in Table 5 (human cytomegalovirus, AD169 strain, reading uncertain); assay: peptide array (SPOTs), dot blot
T6 construct: also called peptide number 3
T6 peptide: SCVTINQTSVKV-{cellulose membrane}

[7] = biological target: glycoprotein gB of clinically isolated HCMV strain MDU-1 (human cytomegalovirus, clinical isolate …, UniProt P08195); assay: cell-based or functional assay
Chain of glycoprotein gB of clinically isolated HCMV strain MDU-1 (P08195 102-630): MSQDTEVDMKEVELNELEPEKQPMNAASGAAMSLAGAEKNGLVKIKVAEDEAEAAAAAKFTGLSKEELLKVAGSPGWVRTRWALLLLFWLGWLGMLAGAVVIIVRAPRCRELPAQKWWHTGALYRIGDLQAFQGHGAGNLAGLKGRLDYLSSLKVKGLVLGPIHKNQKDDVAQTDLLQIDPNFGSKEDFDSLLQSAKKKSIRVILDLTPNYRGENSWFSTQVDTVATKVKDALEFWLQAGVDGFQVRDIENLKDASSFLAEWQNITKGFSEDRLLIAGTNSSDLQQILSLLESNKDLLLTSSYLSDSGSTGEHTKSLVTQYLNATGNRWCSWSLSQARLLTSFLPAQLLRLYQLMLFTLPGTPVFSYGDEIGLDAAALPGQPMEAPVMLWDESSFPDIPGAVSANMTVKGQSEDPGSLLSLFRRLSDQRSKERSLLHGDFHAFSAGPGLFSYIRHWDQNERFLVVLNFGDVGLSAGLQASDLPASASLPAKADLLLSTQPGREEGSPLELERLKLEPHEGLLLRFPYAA

[8] = biological target: glycoprotein gB of HCMV laboratory strain Merlin (human cytomegalovirus, Merlin strain, UniProt F5HB53 25-907); assay: cell-based or functional assay
Chain of glycoprotein gB of HCMV laboratory strain Merlin (F5HB53 25-907 limits assumed): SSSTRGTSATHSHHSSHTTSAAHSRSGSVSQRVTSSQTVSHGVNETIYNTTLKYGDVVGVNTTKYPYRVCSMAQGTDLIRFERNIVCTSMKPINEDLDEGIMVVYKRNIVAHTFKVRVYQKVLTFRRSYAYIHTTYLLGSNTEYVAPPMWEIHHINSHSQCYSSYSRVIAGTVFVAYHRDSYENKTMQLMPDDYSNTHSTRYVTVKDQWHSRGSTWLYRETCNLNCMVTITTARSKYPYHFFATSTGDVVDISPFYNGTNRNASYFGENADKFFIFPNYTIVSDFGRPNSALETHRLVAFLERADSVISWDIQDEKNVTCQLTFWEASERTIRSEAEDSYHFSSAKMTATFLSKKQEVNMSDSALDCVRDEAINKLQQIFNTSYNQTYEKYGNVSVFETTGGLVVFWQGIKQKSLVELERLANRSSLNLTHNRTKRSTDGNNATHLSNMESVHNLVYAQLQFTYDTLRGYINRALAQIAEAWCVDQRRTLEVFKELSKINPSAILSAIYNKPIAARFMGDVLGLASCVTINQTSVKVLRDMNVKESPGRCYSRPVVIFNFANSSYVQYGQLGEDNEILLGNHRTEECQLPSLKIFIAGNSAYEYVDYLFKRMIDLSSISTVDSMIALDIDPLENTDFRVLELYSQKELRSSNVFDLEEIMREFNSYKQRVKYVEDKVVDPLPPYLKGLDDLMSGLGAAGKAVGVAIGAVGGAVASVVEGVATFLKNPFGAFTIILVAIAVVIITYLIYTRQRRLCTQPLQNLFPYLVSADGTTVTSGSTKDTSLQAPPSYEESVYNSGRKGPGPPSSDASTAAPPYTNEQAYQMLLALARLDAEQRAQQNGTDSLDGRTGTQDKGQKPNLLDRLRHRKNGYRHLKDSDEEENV

[9] = biological target: T1, glycoprotein gB of human …; assay: cell-based or functional assay; remark: listed apart in the source
[10] = biological target: glycoprotein gB of HCMV laboratory strain Davis (human cytomegalovirus, Davis strain); assay: cell-based or functional assay
[11] = biological target: glycoprotein gB of clinically isolated HCMV strain T-137 (human cytomegalovirus, clinical isolate …); assay: cell-based or functional assay
[12] = biological target: glycoprotein gB of HCMV laboratory strain Towne (human cytomegalovirus, Towne strain, UniProt P13201 23-907); assay: cell-based or functional assay
Chain of glycoprotein gB of HCMV laboratory strain Towne (P13201 23-907 limits assumed): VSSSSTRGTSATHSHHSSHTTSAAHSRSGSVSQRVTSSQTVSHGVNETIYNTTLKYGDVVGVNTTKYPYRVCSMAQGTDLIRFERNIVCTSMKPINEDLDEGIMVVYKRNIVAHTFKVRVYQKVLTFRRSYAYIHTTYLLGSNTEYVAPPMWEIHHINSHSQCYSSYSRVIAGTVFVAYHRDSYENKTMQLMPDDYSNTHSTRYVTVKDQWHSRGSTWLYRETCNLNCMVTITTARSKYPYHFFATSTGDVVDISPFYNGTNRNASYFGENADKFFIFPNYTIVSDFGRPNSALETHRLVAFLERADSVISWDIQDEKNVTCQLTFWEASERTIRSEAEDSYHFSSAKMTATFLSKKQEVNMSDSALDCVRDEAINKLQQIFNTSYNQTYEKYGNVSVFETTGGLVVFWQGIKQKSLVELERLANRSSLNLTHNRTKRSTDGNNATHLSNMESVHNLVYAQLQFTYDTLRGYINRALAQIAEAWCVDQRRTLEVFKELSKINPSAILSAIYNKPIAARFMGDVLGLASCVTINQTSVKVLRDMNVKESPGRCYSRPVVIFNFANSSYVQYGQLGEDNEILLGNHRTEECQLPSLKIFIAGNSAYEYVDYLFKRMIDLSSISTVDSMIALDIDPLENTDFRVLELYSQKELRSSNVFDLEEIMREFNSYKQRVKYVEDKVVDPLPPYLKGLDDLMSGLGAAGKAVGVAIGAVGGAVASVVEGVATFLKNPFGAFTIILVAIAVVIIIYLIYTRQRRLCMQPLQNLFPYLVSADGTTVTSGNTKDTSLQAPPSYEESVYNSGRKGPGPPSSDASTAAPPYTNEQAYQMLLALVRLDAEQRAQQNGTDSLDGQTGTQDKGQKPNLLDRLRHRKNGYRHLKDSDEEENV

[13] = biological target: T7, GST-fused HCMV-AD1 (AD1 region of HCMV glycoprotein gB) (human cytomegalovirus, AD169 strain, UniProt F5HB53 485-651); assay: ELISA on solid-phased AD1
T7 construct: also called solid-phased AD1; AD1 antigen; not shown: glutathione S-transferase (GST) fusion partner
T7 sequence (F5HB53 485-651): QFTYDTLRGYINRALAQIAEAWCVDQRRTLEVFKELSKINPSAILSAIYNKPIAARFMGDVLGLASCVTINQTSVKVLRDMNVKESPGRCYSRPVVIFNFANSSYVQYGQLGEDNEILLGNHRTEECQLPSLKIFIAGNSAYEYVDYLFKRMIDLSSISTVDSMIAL

[14] = biological target: T7, GST-fused HCMV-AD1 (AD1 region of HCMV …); assay: ELISA on solid-phased AD1 (5 µg/mL)
[15] = biological target: T1, glycoprotein gB of human …; assay: cell-based or functional assay; remark: listed apart in the source

T1 sequence (P06473 32-906 limits assumed): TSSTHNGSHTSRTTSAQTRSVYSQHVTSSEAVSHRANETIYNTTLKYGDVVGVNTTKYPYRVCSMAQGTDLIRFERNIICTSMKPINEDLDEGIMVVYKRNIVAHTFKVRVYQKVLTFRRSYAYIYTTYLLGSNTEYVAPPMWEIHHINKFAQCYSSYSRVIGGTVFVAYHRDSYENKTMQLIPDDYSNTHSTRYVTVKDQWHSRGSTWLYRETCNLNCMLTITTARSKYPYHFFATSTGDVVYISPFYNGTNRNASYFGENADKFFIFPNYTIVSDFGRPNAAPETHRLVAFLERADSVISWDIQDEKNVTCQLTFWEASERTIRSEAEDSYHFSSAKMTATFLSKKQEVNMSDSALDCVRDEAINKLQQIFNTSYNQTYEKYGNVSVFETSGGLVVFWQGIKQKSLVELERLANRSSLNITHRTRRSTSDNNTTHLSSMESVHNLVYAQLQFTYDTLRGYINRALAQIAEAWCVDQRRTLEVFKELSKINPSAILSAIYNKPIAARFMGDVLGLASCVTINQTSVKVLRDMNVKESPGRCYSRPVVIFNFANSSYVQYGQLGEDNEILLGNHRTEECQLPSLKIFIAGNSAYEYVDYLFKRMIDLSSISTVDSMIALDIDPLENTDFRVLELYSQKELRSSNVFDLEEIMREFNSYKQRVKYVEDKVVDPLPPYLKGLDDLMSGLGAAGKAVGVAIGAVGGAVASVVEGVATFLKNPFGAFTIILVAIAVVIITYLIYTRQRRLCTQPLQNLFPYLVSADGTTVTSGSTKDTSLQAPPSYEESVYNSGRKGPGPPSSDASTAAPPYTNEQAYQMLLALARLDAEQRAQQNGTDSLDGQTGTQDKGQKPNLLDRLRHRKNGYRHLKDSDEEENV

B1: anti-AD1 antibody EV2038 (antibody, human IgG1, lambda, V domains shown)
VH: QVQLQQWGAGLLKPSETLSLTCAVYGGSFSGYYWGWIRQPPGKGLEWIGEINHSGSANSNPSLKSRVTMSVDTSKNQFSLKVSSVTAADTAVYFCARVTRDLEWIPGDYYMDVWGKGTTVTVSS
VL: QSVLTQPPSASGTPGQRVSISCSGSLSNIGTNYVYWYQQLPGTAPKLLIFKNNQRPSGVPDRFSGSKSGTSASLAISGLRSEDEADYYCAAWDDSLNGYVFGTGTKVTVLG
notes: complete human IgG1λ; also called EV2038 (original); anti-HCMV antibody (EV2038)
Question: Which results are given for B1?
Answer: IC50 of neutralisation of HCMV AD169 infection of MRC-5 cells (IE1 immunostaining), with complement (Cp+) [1]: 0.58 µg/mL; IC50 of neutralisation of HCMV AD169 infection of MRC-5 cells (IE1 immunostaining), without complement (Cp-) [1]: 0.57 µg/mL; binding result [2]: binds; binding result [3]: binds; binding result [4]: binds; binding result [5]: binds; binding result [6]: binds; IC50 of plaque formation, clinical isolate MDU-1, epithelial cell [7]: 0.04 µg/mL; IC50 of plaque formation, clinical isolate MDU-1, fibroblast cell [7]: 0.044 µg/mL; IC50 of plaque formation, clinical isolate MDU-1, fibroblast cell (mol concentration) [7]: 0.29 nM; IC50 of plaque formation, HCMV Merlin, fibroblast cell [8]: 0.012 µg/mL; IC50 of plaque formation, HCMV Merlin, fibroblast cell (mol concentration) [8]: 0.08 nM; IC50 of plaque formation, HCMV AD169, fibroblast cell [9]: 0.027 µg/mL; IC50 of plaque formation, HCMV AD169, fibroblast cell (mol concentration) [9]: 0.18 nM; IC50 of plaque formation, HCMV Davis, fibroblast cell [10]: 0.037 µg/mL; IC50 of plaque formation, HCMV Davis, fibroblast cell (mol concentration) [10]: 0.25 nM; IC50 of plaque formation, clinical isolate T-137, fibroblast cell [11]: 0.07 µg/mL; IC50 of plaque formation, clinical isolate T-137, fibroblast cell (mol concentration) [11]: 0.47 nM; IC50 of plaque formation, HCMV Towne, fibroblast cell [12]: 0.025 µg/mL; IC50 of plaque formation, HCMV Towne, fibroblast cell (mol concentration) [12]: 0.17 nM

B2: EV2038 CDR-H3 insertion variant G126_D127insE (antibody, V domains shown)
VH: QVQLQQWGAGLLKPSETLSLTCAVYGGSFSGYYWGWIRQPPGKGLEWIGEINHSGSANSNPSLKSRVTMSVDTSKNQFSLKVSSVTAADTAVYFCARVTRDLEWIPGEDYYMDVWGKGTTVTVSS
VL: B1 VL
notes: original EV2038 L-chain
Question: Does B2 bind [13]?
Answer: Result: no binding

B3: EV2038 CDR-H3 deletion variant E122del (antibody, V domains shown)
VH: QVQLQQWGAGLLKPSETLSLTCAVYGGSFSGYYWGWIRQPPGKGLEWIGEINHSGSANSNPSLKSRVTMSVDTSKNQFSLKVSSVTAADTAVYFCARVTRDLWIPGDYYMDVWGKGTTVTVSS
VL: B1 VL
notes: original EV2038 L-chain
Question: Does B3 bind [13]?
Answer: Result: no binding

B4: EV2038 CDR-H3 variant P125E (antibody, V domains shown)
VH: B1 VH with P106E
VL: B1 VL
notes: original EV2038 L-chain
Question: Does B4 bind [14]?
Answer: Result: no binding (tested: 1 µg/mL, dilution series)

B5: EV2038 CDR-H3 variant P125V (antibody, V domains shown)
VH: B1 VH with P106V
VL: B1 VL
notes: original EV2038 L-chain
Question: Does B5 bind [14]?
Answer: Result: no binding (tested: 1 µg/mL, dilution series)

B6: EV2038 CDR-H3 variant P125Q (antibody, V domains shown)
VH: B1 VH with P106Q
VL: B1 VL
notes: original EV2038 L-chain
Question: Does B6 bind [14]?
Answer: Result: no binding (tested: 1 µg/mL, dilution series)

B7: EV2038 CDR-H3 variant P125G (antibody, V domains shown)
VH: B1 VH with P106G
VL: B1 VL
notes: original EV2038 L-chain
Question: Does B7 bind [14]?
Answer: Result: no binding (tested: 1 µg/mL, dilution series)

B8: EV2038 CDR-H3 variant P125A (antibody, V domains shown)
VH: B1 VH with P106A
VL: B1 VL
notes: original EV2038 L-chain
Question: Does B8 bind [14]?
Answer: Result: no binding (tested: 1 µg/mL, dilution series)

B9: EV2038 CDR-H3 variant P125L (antibody, V domains shown)
VH: B1 VH with P106L
VL: B1 VL
notes: original EV2038 L-chain
Question: Does B9 bind [14]?
Answer: Result: no binding (tested: 1 µg/mL, dilution series)

B10: EV2038 CDR-H3 variant P125F (antibody, V domains shown)
VH: B1 VH with P106F
VL: B1 VL
notes: original EV2038 L-chain
Question: Does B10 bind [14]?
Answer: Result: no binding (tested: 1 µg/mL, dilution series)

B11: EV2038 CDR-H3 variant P125T (antibody, V domains shown)
VH: B1 VH with P106T
VL: B1 VL
notes: original EV2038 L-chain
Question: Does B11 bind [14]?
Answer: Result: no binding (tested: 1 µg/mL, dilution series)

B12: EV2038 CDR-H3 variant P125W (antibody, V domains shown)
VH: B1 VH with P106W
VL: B1 VL
notes: original EV2038 L-chain
Question: Does B12 bind [14]?
Answer: Result: no binding (tested: 1 µg/mL, dilution series)

B13: EV2038 CDR-H3 variant P125M (antibody, V domains shown)
VH: B1 VH with P106M
VL: B1 VL
notes: original EV2038 L-chain
Question: Does B13 bind [14]?
Answer: Result: no binding (tested: 1 µg/mL, dilution series)

B14: EV2038 CDR-H3 variant I124D (antibody, V domains shown)
VH: B1 VH with I105D
VL: B1 VL
notes: original EV2038 L-chain
Question: Does B14 bind [13]?
Answer: Result: no binding

B15: EV2038 CDR-H3 variant P125S (antibody, V domains shown)
VH: B1 VH with P106S
VL: B1 VL
notes: original EV2038 L-chain
Question: Does B15 bind [14]?
Answer: Result: no binding (tested: 1 µg/mL, dilution series)

B16: EV2038 CDR-H3 variant P125I (antibody, V domains shown)
VH: B1 VH with P106I
VL: B1 VL
notes: original EV2038 L-chain
Question: Does B16 bind [14]?
Answer: Result: no binding (tested: 1 µg/mL, dilution series)

B17: EV2038 CDR-H3 variant P125K (antibody, V domains shown)
VH: B1 VH with P106K
VL: B1 VL
notes: original EV2038 L-chain
Question: Does B17 bind [14]?
Answer: Result: no binding (tested: 1 µg/mL, dilution series)

B18: EV2038 CDR-H3 variant P125R (antibody, V domains shown)
VH: B1 VH with P106R
VL: B1 VL
notes: original EV2038 L-chain
Question: Does B18 bind [14]?
Answer: Result: no binding (tested: 1 µg/mL, dilution series)

B19: EV2038 CDR-H3 variant P125D (antibody, V domains shown)
VH: B1 VH with P106D
VL: B1 VL
notes: original EV2038 L-chain
Question: Does B19 bind [14]?
Answer: Result: no binding (tested: 1 µg/mL, dilution series)

B20: EV2038 CDR-H3 variant V132K (antibody, V domains shown)
VH: B1 VH with V113K
VL: B1 VL
Question: For B20, which “50% inhibition concentration (IC50) of HCMV infection (immunostaining method of Abai et al.)” value [15] is on record?
Answer: The value was 1.2 µg/mL.

B21: EV2038 CDR-H3 variant I124V (antibody, V domains shown)
VH: B1 VH with I105V
VL: B1 VL
Question: How did the “50% inhibition concentration (IC50) of HCMV infection (immunostaining method of Abai et al.)” value [15] turn out when B21 was run?
Answer: The value was 0.45 µg/mL.

B22: EV2038 CDR-H3 variant P125N (antibody, V domains shown)
VH: B1 VH with P106N
VL: B1 VL
notes: original EV2038 L-chain
Question: Does B22 bind [14]?
Answer: Result: no binding (tested: 1 µg/mL, dilution series)

B23: EV2038 CDR-H3 variant P125H (antibody, V domains shown)
VH: B1 VH with P106H
VL: B1 VL
notes: original EV2038 L-chain
Question: Does B23 bind [14]?
Answer: Result: no binding (tested: 1 µg/mL, dilution series)

B24: EV2038 CDR-H3 variant P125Y (antibody, V domains shown)
VH: B1 VH with P106Y
VL: B1 VL
notes: original EV2038 L-chain
Question: Does B24 bind [14]?
Answer: Result: no binding (tested: 1 µg/mL, dilution series)

B25: EV2038 CDR-H3 variant P125C (antibody, V domains shown)
VH: B1 VH with P106C
VL: B1 VL
notes: original EV2038 L-chain
Question: Does B25 bind [14]?
Answer: Result: no binding (tested: 1 µg/mL, dilution series)
